Measurements published in article PMC2747730 (Biochemistry, 2008).

Biological target: the molecule itself
Experiment: PFG-NMR translational diffusion

B1: Sml1 (suppressor of Mec1 lethality), full length wild type (natural protein, S. cerevisiae, UniProt Q04964 1-104, looked up)
chain: MQNSQDYFYAQNRCQQQQAPSTLRTVTMAEFRRVPLPPMAEVPMLSTQNSMGSSASASASSLEMWEKDLEERLNSIDHDMNNNKFGSGELKSMFNQGKVEEMDF
Kd: 93 ± 25 µM
